Publication PMC5454376 (Nature Communications, 2017)
Where no end group is shown, it is not given here.

What was measured:
Settings in all cases: both partners purified
Human His-Gαi3 WT [1] = target: T1, Human His-Gαi3 WT (human, UniProt P08754 1-354); experiment: fluorescence polarisation; fluorescein-labelled peptide 0.025 μM, G protein 0–8 μM; room temperature; 50 mM Tris-HCl pH 7.4, 100 mM NaCl, 0.4% NP-40, 10 mM MgCl2, 5 mM EDTA, 2 mM DTT, 30 μM GDP; one site binding hyperbola
T1 construct: Gαi3, human, UniProt P08754, full length; same plasmid as for the NMR studies; also called His-tagged Gαi3; tagged protein; source: E. coli, pET24d(+), purified as uncleaved His-tagged protein (HisPur Cobalt Resin); not shown: His tag, N-terminal, kept
T1 sequence (P08754 whole entry): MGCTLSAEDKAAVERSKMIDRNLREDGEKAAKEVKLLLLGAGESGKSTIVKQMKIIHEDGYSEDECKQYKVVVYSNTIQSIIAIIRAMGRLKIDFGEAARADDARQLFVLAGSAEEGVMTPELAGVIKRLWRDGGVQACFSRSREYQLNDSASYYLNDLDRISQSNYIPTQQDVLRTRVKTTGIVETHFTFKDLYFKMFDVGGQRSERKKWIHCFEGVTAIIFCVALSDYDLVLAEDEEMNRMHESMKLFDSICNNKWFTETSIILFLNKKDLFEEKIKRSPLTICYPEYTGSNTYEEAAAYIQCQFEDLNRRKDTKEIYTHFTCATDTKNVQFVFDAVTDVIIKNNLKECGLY

Human His-Gαi3 S252A [2] = target: T2, Human His-Gαi3 S252A (human, UniProt P08754 1-354, S252 mutated to A); experiment: as above
T2 construct: Gαi3, human, UniProt P08754, full length; also called S252 mutated to A; source: E. coli, pET24d(+), purified as uncleaved His-tagged protein (HisPur Cobalt Resin); not shown: His tag, N-terminal, kept
T2 sequence (P08754 whole entry S252A): as the sequence (P08754 whole entry) above, with S252A counted along it

Human His-Gαi3 N256A [3] = target: T3, Human His-Gαi3 N256A (human, UniProt P08754 1-354, N256 mutated to A); experiment: as above
T3 construct: Gαi3, human, UniProt P08754, full length; also called N256 mutated to A; source: E. coli, pET24d(+), purified as uncleaved His-tagged protein (HisPur Cobalt Resin); not shown: His tag, N-terminal, kept
T3 sequence (P08754 whole entry N256A): as the sequence (P08754 whole entry) above, with N256A counted along it

[4] = target: T4, Human His-Gαi3 ΔC9 (lacking the last nine residues) (human, UniProt P08754 1-345); experiment: as above
T4 construct: Gαi3, human, UniProt P08754, lacking the last nine residues; source: E. coli, pET24d(+), purified as uncleaved His-tagged protein (HisPur Cobalt Resin); not shown: His tag, N-terminal, kept
T4 sequence (P08754 1-345, stated change not applied): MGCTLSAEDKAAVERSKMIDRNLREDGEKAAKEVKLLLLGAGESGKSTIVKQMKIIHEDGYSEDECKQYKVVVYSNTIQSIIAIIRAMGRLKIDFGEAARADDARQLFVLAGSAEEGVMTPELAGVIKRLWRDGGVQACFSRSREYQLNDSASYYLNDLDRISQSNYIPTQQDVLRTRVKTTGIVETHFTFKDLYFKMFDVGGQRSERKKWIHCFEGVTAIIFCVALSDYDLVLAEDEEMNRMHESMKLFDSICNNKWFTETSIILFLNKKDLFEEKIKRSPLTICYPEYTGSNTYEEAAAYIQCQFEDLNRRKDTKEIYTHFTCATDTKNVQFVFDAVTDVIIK

[5] = target: T5, Full-length human Gαi3, untagged (NMR sample) (human, UniProt P08754 1-354); experiment: as above
T5 construct: Uniformly 2H,13C,15N labelled for NMR; also called Gαi3-GDP; 2H,13C,15N-Gαi3; source: E. coli BL21 Rosetta, pET24d(+), purified (His-Trap, tag cleavage, GST-Trap, Superdex 200); not shown: His tag, N-terminal, cleaved
T5 sequence (P08754 whole entry): as the sequence (P08754 whole entry) above

Human His-Gαi3 W211A = target: T6, Human His-Gαi3 W211A (human, UniProt P08754 1-354, W211A); experiment: as above
T6 construct: Gαi3, human, UniProt P08754, full length; source: E. coli, pET24d(+), purified as uncleaved His-tagged protein (HisPur Cobalt Resin); not shown: His tag, N-terminal, kept
T6 sequence (P08754 whole entry W211A): as the sequence (P08754 whole entry) above, with W211A counted along it

Human His-Gαi3 WT [6] = target: T1, Human His-Gαi3 WT; experiment: pull-down; 10 μg GST-GIV or GST-DAPLE on glutathione agarose beads (~1.25 μM); His-Gαi3 WT or mutants ~1 μM in solution; 4 h, 4 °C; 50 mM Tris-HCl pH 7.4, 100 mM NaCl, 0.4% NP-40, 10 mM MgCl2, 5 mM EDTA, 2 mM DTT, 30 μM GDP; Coomassie blue
Human His-Gαi3 S252A [7] = target: T2, Human His-Gαi3 S252A; experiment: as above
Human His-Gαi3 N256A [8] = target: T3, Human His-Gαi3 N256A; experiment: as above
[9] = target: T4, Human His-Gαi3 ΔC9 (lacking the last …); experiment: as above
His-tagged rat Gαi3 = target: T7, His-tagged rat Gαi3 (rat, UniProt P08753 1-354); experiment: pull-down; as a1 but His-Gαi3 reloaded with GDP (Gαi3-[GDP]) and buffer supplemented with 100 μM GDP
T7 construct: Same protein in three nucleotide states (nucleotide-free, GDP, GDP/AlF4−); the states are told apart by the assays a1-a3; also called His-Gαi3; Gαi3-[GDP]; source: E. coli BL21(DE3), pET28b, purified (Superdex S75); nucleotide-depleted and reloaded or not with GDP or GDP/AlF4−
T7 sequence (P08753 whole entry): as the sequence (P08754 whole entry) above, with P121S, S165T, D193E, E261D, I319V counted along it

[10] = target: T5, Full-length human Gαi3, untagged (NMR …); experiment: NMR titration; 1H–15N TROSY and HNCO of 32 μM 2H,13C,15N-Gαi3 titrated with GIV peptide 1,671–1,696 (molar ratios 1:0 to 1:5); 30 °C; 10 mM HEPES pH 7.0, 10 mM MgCl2, 5 mM DTT, GDP; up to 3% DMSO
[11] = target: T5, Full-length human Gαi3, untagged (NMR …); experiment: NMR titration; 1H–15N TROSY and HNCO of 100 μM 2H,13C,15N-Gαi3 free and with a twofold molar excess of His-GIV-CT; 30 °C; 10 mM HEPES pH 7.0, 10 mM MgCl2, 5 mM DTT, threefold molar excess of GDP

Measured: binding result

B1: Fluorescein-labelled GIV peptide (residues 1,671–1,701) (peptide)
peptide: {5,6‑carboxyfluorescein}-KTGSPGSEVVTLQQFLEESNKLTSVQIKSSS
notes: numbers on UniProt Q3V6T2-3; also called GBA motif of GIV; GEF motif of GIV; source: synthetic peptide
binds: Human His-Gαi3 WT [1] | Human His-Gαi3 S252A [2] | Human His-Gαi3 N256A [3] | [4] | [5]

B2: Fluorescein-labelled RGS12 GoLoco peptide (residues 1,185–1,221) (peptide)
peptide: {5,6‑carboxyfluorescein}-DEAEEFFELISKAQSNRADDQRGLLRKEDLVLPEFLR
notes: RGS12, GoLoco motif, residues 1,185–1,221; 'human' stands at the head of the list 'human GIV ..., DAPLE ... or RGS12'; read as applying to all three; also called GoLoco motif of RGS12; RGS12 GoLoco motif; source: synthetic peptide
binds: Human His-Gαi3 WT [1] | Human His-Gαi3 W211A

B3: GST-DAPLE (1,650–1,745) (domain or fragment, human, UniProt Q9P219 1650-1745, looked up)
chain: GTAPPYVGVRPCSASPSSEMVTLEEFLEESNRSSPTHDTPSCRDDLLSDYFRKASDPPAIGGQPGPPAKKEGAKMPTNFVAPTVKMAAPTSEGRPL
notes: DAPLE (dishevelled-associating protein with high frequency of leucines), human, residues 1,650–1,745, cloned from Kazusa's clone fh14721 (KIAA1509)
binds: Human His-Gαi3 WT [6] | Human His-Gαi3 S252A [7] | Human His-Gαi3 N256A [8] | [9]

B4: GST-GIV (residues 1,671–1,755, containing its GBA motif) (domain or fragment, human, UniProt Q3V6T2-3 1671-1755, looked up)
chain: KTGSPGSEVVTLQQFLEESNKLTSVQIKSSSQENLLDEVMKSLSVSSDFLGKDKPVSCGLARSVSGKTPGDFYDRRTTKPEFLRP
notes: Girdin), human, residues 1,671–1,755
binds: His-tagged rat Gαi3 | Human His-Gαi3 WT [6] | Human His-Gαi3 S252A [7] | Human His-Gαi3 N256A [8] | [9]

B5: GIV peptide, amino acids 1,671–1,696 (GIVpept) (peptide)
peptide: KTGSPGSEVVTLQQFLEESNKLTSVQ
notes: GIV (Girdin), human, residues 1,671–1,696; numbers on UniProt Q3V6T2-3; Made on p-methylbenzhydrylamine resin; also called GIV fragment 1,671–1,696; source: synthetic peptide
binds: [10]

B6: His-tagged human GIV residues 1,660–1,870 (GIV-CT) (domain or fragment, UniProt Q3V6T2-3 1660-1870, looked up)
chain: SETLESRHHKIKTGSPGSEVVTLQQFLEESNKLTSVQIKSSSQENLLDEVMKSLSVSSDFLGKDKPVSCGLARSVSGKTPGDFYDRRTTKPEFLRPGPRKTEDTYFISSAGKPTPGTQGKIKLVKESSLSRQSKDSNPYATLPRASSVISTAEGTTRRTSIHDFLTKDSRLPISVDSPPAAADSNTTAASNVDKVQESRNSKSRSREQQSS
notes: MALDI mass consistent with the tagged fragment lacking the initial methionine; source: E. coli BL21(DE3), pET28b, purified (Co2+ and Ni2+ columns, Superdex 200); not shown: His tag, N-terminal, kept
binds: [11]
